Patent publication US7803762B1, “Ready-to-use bivalirudin compositions” (The Medicines Company, priority 2009, dated 2010)

Test: Investigation of pH of bivalirudin solutions (degradation at pH 2-6)
Type: physicochemical
Settings: 1 mg/ml aqueous solution
Experimental: The degradation pathway of bivalirudin was investigated by preparing aqueous solutions at 1 mg/ml of bivalirudin at pH 2, 3, 4, 5 and 6 (Table 1). […] The excessive degradation observed was attributed to a change in pH during storage wherein the final pH of the bivalirudin compositions was about 7.

D-Phenylalanyl-L-Prolyl-L-Arginyl-L-Prolyl-Glycyl-Glycyl-Glycyl-Glycyl-L-Asparagyl-Glycyl-L-Aspartyl-L-Phenylalanyl-L-Glutamyl-L-Glutamyl-L-Isoleucyl-L-Prolyl-L-Glutamyl-L-Glutamyl-L-Tyrosyl-L-Leucine trifluoroacetate (salt) hydrate [bivalirudin]
Asp^9-Bivalirudin (pH 2, 25° C./1 month): 2.58 % AUC
Total Degradants (pH 2, 25° C./1 month): 64.8 % AUC
Asp^9-Bivalirudin (pH 2, Initial): 0.45 % AUC
Total Degradants (pH 2, Initial): 0.6 % AUC
Asp^9-Bivalirudin (pH 3, 25° C./1 month): 2.71 % AUC
Total Degradants (pH 3, 25° C./1 month): 37.7 % AUC
Asp^9-Bivalirudin (pH 3, Initial): 0.76 % AUC
Total Degradants (pH 3, Initial): 0.9 % AUC
Asp^9-Bivalirudin (pH 4, 25° C./1 month): 1.26 % AUC
Total Degradants (pH 4, 25° C./1 month): 51.1 % AUC
Asp^9-Bivalirudin (pH 4, Initial): 0.59 % AUC
Total Degradants (pH 4, Initial): 3.1 % AUC
Asp^9-Bivalirudin / Total Degradants (pH 5, 25° C./1 month): complete degradation
Asp^9-Bivalirudin (pH 5, Initial): 0.84 % AUC
Total Degradants (pH 5, Initial): 3.4 % AUC
Asp^9-Bivalirudin / Total Degradants (pH 6, 25° C./1 month): complete degradation
Asp^9-Bivalirudin (pH 6, Initial): 1.19 % AUC
Total Degradants (pH 6, Initial): 4.7 % AUC
